Key:
Nav1.5 = Nav1.5 (Homo sapiens, UniProt Q14524); test: in vitro; conditions: 100% = no change; for Activity of Nav1.5 with peptide, expressed as a percentage of the reference compound: peptide at 0.2 μM; for Activity of Nav1.5 with peptide (percentage of the reference compound): peptide at 20 μM
Outline: (§1)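 Peptides were tested in duplicate at final 20 μM and 200 nM, with concentration set by amino acid analysis, in HEPES-buffered saline. They were applied for at least 5 min to HEK293 or CHO cells transfected with each channel. Currents were expressed as % inhibition, 1-(Ipeptide/Icontrol)×100, or % activation, Ipeptide/Icontrol×100, against a channel-matched reference compound.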

hERG = hERG (Homo sapiens, UniProt Q12809); test: in vitro; conditions: 100% = no change, <100% = inhibition
Outline: as §1

5HT3a = target: T1, 5HT3a (Homo sapiens, UniProt P46098); test: Ion channel panel (IonWorks Barracuda): 5HT3a; type: cell-based
T1 construct: host or cells: HEK293 or CHO
T1 sequence (P46098 whole entry, looked up): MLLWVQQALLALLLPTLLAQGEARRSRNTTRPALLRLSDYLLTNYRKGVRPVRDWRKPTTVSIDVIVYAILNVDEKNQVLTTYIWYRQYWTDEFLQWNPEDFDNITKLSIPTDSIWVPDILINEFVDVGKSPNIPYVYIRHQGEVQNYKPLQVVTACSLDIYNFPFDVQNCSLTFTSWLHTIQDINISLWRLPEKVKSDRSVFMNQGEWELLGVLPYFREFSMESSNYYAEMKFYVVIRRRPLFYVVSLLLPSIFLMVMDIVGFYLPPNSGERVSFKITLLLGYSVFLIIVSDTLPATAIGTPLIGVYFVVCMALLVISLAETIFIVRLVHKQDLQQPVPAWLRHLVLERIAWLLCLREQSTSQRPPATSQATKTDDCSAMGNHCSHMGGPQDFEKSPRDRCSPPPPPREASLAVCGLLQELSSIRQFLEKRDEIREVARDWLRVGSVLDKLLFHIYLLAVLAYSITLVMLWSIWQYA
Outline: as §1

NR2B = target: T2, NR2B (Homo sapiens, UniProt Q13224); test: Ion channel panel (IonWorks Barracuda): NR2B; type: cell-based; conditions: 100% = no change, <100% = inhibition
T2 construct: host or cells: HEK293 or CHO
Outline: as §1

NR2A = target: T3, NR2A (Homo sapiens, UniProt Q12879); test: Ion channel panel (IonWorks Barracuda): NR2A; type: cell-based; conditions: 100% = no change, <100% = inhibition
T3 construct: host or cells: HEK293 or CHO
Outline: as §1

Cav2.1 = target: T4, Cav2.1 (Homo sapiens, UniProt O00555); test: cell-based; conditions: 100% = no change, <100% = inhibition
T4 construct: host or cells: HEK293 or CHO
Outline: as §1

Cav2.2 = target: T5, Cav2.2 (Homo sapiens, UniProt Q00975); test: cell-based; conditions: 100% = no change, <100% = inhibition
T5 construct: host or cells: HEK293 or CHO
Outline: as §1

Kv2.1 = target: T6, Kv2.1 (Homo sapiens, UniProt Q14721); test: cell-based; conditions: 100% = no change, <100% = inhibition
T6 construct: host or cells: HEK293 or CHO
Outline: as §1

GABA = test: Ion channel panel (IonWorks Barracuda): GABA; type: cell-based; conditions: 100% = no change, <100% = inhibition
Outline: as §1

TRPA1 = target: T7, TRPA1 (Homo sapiens, UniProt O75762); test: Ion channel panel (IonWorks Barracuda): TRPA1; type: cell-based; conditions: 100% = no change, <100% = inhibition
T7 construct: host or cells: HEK293 or CHO
Outline: as §1

α4β2 = target: T8, α4β2 (Homo sapiens, UniProt P17787+P43681); test: Ion channel panel (IonWorks Barracuda): α4β2; type: cell-based; conditions: 100% = no change, <100% = inhibition
T8 construct: host or cells: HEK293 or CHO
T8 sequence (P43681 29-627): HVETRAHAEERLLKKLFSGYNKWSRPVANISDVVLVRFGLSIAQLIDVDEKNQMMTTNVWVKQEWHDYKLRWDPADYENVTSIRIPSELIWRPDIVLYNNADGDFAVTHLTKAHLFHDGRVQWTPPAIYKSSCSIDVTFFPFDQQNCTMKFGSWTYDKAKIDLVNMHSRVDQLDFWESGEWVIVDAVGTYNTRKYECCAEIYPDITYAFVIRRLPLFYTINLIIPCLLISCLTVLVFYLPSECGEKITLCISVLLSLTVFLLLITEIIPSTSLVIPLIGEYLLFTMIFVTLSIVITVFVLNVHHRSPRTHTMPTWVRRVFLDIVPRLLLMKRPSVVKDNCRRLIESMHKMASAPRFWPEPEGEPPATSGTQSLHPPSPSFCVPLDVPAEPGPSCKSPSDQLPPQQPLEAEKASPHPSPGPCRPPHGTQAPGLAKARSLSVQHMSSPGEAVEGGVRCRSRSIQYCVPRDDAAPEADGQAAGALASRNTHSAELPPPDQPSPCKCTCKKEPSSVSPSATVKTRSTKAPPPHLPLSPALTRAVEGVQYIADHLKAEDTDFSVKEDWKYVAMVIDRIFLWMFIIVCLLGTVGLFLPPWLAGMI
T8 sequence (P17787 26-502): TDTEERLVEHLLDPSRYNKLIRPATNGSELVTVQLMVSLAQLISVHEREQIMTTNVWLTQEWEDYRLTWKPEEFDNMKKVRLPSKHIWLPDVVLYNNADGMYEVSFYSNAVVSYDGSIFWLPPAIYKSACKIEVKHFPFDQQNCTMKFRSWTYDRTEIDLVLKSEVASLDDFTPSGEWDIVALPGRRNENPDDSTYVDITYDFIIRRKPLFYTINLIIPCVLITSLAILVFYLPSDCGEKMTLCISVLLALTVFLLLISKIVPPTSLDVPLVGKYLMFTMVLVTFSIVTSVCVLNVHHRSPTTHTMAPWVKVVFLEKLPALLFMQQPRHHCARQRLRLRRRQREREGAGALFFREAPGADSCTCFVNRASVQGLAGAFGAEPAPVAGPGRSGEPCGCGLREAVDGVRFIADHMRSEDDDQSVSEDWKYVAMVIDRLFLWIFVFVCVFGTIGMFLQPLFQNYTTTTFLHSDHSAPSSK
Outline: as §1

Kv1.3 = target: T9, Kv1.3 (Homo sapiens, UniProt P22001); test: cell-based; type: cell-based; conditions: 100% = no change, <100% = inhibition
T9 construct: host or cells: HEK293 or CHO
Outline: as §1

Kv1.2 = target: T10, Kv1.2 (Homo sapiens, UniProt P16389); test: cell-based; type: cell-based; conditions: 100% = no change, <100% = inhibition
T10 construct: host or cells: HEK293 or CHO
Outline: as §1

Kv1.1 = target: T11, Kv1.1 (Homo sapiens, UniProt Q09470); test: cell-based; type: cell-based; conditions: 100% = no change, <100% = inhibition
T11 construct: host or cells: HEK293 or CHO
Outline: as §1

Nav1.7 = target: T12, Nav1.7 (Homo sapiens, UniProt Q15858); test: cell-based; type: cell-based; conditions: 100% = no change; for Activity of Nav1.7 with peptide, expressed as a percentage of the reference compound: peptide at 0.2 μM; for Activity of Nav1.7 with peptide (percentage of the reference compound): peptide at 20 μM
T12 construct: host or cells: HEK293 or CHO
T12 sequence (Q15858 whole entry): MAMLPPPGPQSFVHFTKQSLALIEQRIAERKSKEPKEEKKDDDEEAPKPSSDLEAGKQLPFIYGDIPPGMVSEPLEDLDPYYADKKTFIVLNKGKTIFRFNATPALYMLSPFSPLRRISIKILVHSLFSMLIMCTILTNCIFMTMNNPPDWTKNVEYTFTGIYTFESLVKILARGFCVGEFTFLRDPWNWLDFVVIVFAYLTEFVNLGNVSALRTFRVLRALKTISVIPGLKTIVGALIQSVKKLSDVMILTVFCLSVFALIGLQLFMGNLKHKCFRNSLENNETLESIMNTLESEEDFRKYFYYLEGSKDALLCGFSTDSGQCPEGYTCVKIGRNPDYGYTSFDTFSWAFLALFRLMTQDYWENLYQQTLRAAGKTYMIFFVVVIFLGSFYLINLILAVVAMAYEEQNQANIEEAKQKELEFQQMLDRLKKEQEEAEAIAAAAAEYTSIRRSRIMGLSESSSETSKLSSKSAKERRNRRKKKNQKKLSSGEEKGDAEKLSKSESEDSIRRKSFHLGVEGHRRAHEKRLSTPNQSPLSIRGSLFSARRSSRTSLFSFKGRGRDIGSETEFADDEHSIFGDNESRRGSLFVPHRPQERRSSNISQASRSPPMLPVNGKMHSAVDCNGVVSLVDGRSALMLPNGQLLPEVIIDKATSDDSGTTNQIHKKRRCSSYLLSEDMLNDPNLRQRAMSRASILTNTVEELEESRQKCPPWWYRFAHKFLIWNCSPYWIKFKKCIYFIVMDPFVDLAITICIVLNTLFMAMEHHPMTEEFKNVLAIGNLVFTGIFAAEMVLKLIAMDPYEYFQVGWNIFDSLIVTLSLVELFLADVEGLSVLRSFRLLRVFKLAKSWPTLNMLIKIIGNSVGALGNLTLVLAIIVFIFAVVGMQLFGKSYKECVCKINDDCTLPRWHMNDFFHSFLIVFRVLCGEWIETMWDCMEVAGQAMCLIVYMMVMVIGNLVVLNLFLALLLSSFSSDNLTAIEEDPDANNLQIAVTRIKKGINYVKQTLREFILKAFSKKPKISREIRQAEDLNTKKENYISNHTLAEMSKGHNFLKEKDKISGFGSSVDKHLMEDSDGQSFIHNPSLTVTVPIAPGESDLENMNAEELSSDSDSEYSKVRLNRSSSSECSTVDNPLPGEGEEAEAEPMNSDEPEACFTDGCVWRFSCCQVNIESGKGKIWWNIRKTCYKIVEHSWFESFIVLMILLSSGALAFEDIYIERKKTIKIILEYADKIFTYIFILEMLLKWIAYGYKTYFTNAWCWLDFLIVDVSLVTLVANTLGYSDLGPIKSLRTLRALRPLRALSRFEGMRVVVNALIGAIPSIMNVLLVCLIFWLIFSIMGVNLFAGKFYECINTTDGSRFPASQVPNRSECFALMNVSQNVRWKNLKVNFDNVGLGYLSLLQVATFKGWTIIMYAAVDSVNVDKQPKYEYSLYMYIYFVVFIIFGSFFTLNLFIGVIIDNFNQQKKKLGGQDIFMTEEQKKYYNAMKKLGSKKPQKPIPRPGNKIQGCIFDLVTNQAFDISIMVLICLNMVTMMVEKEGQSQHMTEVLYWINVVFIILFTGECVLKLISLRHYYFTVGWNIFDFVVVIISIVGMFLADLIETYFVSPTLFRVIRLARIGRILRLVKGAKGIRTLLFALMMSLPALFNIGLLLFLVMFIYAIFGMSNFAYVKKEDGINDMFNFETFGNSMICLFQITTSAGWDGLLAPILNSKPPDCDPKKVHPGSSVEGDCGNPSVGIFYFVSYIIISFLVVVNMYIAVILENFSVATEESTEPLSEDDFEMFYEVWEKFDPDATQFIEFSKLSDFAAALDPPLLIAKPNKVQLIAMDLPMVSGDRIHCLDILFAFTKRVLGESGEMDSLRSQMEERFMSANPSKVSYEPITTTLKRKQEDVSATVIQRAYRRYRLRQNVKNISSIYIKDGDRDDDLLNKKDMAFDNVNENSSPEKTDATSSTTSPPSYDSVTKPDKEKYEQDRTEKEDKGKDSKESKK

Kir2.1 = target: T13, Kir2.1 (Homo sapiens, UniProt P63252); test: Ion channel panel (IonWorks Barracuda): Kir2.1; type: cell-based; conditions: 100% = no change, <100% = inhibition
T13 construct: host or cells: HEK293 or CHO
Outline: as §1

TRPV1 = target: T14, TRPV1 (Homo sapiens, UniProt Q8NER1); test: Ion channel panel (IonWorks Barracuda): TRPV1; type: cell-based; conditions: 100% = no change, <100% = inhibition
T14 construct: host or cells: HEK293 or CHO
Outline: as §1

α3β4 = target: T15, α3β4 (Homo sapiens, UniProt P30926+P32297); test: Ion channel panel (IonWorks Barracuda): α3β4; type: cell-based; conditions: 100% = no change, <100% = inhibition
T15 construct: host or cells: HEK293 or CHO
Outline: as §1

[1] = first of two Nav1.5 columns (probably TP1)
[2] = second of two Nav1.5 columns (probably TP2)
[3] = first of two Nav1.7 columns (probably TP1)
[4] = second of two Nav1.7 columns (probably TP2)

Sequence of Nav1.5 (Q14524 whole entry): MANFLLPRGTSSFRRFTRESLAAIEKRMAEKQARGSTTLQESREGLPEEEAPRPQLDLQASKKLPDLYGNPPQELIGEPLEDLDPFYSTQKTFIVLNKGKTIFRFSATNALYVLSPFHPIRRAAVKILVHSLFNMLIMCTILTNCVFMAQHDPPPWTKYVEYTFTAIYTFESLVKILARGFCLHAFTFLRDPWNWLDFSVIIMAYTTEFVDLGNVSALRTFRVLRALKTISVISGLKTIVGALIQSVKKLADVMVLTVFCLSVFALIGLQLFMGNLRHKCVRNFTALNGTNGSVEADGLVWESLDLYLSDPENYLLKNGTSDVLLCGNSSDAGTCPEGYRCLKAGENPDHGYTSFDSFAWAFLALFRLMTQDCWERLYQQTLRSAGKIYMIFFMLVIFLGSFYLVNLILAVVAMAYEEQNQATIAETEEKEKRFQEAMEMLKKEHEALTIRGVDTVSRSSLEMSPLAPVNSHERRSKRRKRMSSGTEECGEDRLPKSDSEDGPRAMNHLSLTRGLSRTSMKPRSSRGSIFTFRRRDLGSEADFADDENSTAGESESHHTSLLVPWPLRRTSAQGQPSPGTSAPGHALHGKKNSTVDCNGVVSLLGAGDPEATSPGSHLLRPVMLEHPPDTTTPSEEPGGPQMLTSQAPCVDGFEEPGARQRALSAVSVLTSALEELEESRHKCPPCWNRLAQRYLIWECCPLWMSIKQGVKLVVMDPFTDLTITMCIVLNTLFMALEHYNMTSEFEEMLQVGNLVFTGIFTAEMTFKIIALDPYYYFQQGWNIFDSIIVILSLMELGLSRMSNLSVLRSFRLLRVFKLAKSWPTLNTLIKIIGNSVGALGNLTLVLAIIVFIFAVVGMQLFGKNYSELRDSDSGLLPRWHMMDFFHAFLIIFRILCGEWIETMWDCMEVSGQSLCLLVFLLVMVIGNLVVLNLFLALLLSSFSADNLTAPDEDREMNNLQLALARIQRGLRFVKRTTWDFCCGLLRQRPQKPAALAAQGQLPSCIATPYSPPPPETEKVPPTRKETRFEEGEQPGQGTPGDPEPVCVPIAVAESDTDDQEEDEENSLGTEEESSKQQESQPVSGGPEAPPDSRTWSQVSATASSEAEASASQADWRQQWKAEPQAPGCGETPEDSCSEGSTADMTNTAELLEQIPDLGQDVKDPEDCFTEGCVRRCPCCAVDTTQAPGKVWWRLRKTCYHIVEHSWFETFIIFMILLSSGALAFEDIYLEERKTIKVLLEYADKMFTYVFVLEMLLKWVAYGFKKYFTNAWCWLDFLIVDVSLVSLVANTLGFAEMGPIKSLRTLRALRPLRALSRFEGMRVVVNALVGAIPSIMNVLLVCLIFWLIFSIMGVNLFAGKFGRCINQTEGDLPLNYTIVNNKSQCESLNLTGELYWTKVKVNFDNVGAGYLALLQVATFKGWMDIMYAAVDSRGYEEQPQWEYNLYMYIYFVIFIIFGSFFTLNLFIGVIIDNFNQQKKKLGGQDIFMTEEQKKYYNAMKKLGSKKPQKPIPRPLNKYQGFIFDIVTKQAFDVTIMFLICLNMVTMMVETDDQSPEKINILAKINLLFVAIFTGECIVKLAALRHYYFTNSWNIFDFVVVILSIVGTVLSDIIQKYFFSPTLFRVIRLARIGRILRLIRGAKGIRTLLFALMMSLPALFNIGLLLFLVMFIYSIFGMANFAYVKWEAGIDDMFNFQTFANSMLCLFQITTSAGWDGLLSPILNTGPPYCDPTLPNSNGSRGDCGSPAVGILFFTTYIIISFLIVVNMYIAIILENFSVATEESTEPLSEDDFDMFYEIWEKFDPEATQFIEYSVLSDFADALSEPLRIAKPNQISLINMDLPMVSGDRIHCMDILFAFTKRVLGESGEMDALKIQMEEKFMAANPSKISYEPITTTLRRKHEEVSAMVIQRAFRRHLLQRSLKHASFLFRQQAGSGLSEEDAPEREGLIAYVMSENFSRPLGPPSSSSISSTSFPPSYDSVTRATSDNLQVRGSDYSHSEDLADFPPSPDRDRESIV

15 (GSAVCNLKRCQLSCRSLGLLGKCIGDKCECVKHG) [compound 15]
Activity of Nav1.5 with peptide, expressed as a percentage of the reference compound (Nav1.5; [1]): 90% | Activity of Nav1.5 with peptide, expressed as a percentage of the reference compound (Nav1.5; [2]): 91% | Activity of Nav1.5 with peptide (percentage of the reference compound) (Nav1.5; [1]): 78% | Activity of Nav1.5 with peptide (percentage of the reference compound) (Nav1.5; [2]): 79% | Activity of hERG with peptide, expressed as a percentage of the reference compound (hERG; peptide at 0.2 μM): 79% | Activity of hERG with peptide (percentage of the reference compound) (hERG; peptide at 20 μM): 67% | Activity of 5HT3a with peptide (percentage of the reference compound) (5HT3a): 74% | Activity of 5HT3a with peptide, expressed as a percentage of the reference compound (5HT3a): 86% | Activity of NR2B with peptide, expressed as a percentage of the reference compound (NR2B; peptide at 0.2 μM): 103% | Activity of NR2B with peptide (percentage of the reference compound) (NR2B; peptide at 20 μM): 88% | Activity of NR2A with peptide, expressed as a percentage of the reference compound (NR2A; peptide at 0.2 μM): 97% | Activity of NR2A with peptide (percentage of the reference compound) (NR2A; peptide at 20 μM): 76% | Activity of Cav2.1 with peptide, expressed as a percentage of the reference compound (Cav2.1; peptide at 0.2 μM): 106% | Activity of Cav2.1 with peptide (percentage of the reference compound) (Cav2.1; peptide at 20 μM): 86% | Activity of Cav2.2 with peptide, expressed as a percentage of the reference compound (Cav2.2; peptide at 0.2 μM): 105% | Activity of Cav2.2 with peptide (percentage of the reference compound) (Cav2.2; peptide at 20 μM): 106% | Activity of Kv2.1 with peptide, expressed as a percentage of the reference compound (Kv2.1; peptide at 0.2 μM): 91% | Activity of Kv2.1 with peptide (percentage of the reference compound) (Kv2.1; peptide at 20 μM): 88% | Activity of GABA with peptide, expressed as a percentage of the reference compound (GABA; peptide at 0.2 μM): 122% | Activity of GABA with peptide (percentage of the reference compound) (GABA; peptide at 20 μM): 97% | Activity of TRPA1 with peptide, expressed as a percentage of the reference compound (TRPA1; peptide at 0.2 μM): 114% | Activity of TRPA1 with peptide (percentage of the reference compound) (TRPA1; peptide at 20 μM): 76% | Activity of a4b2 with peptide, expressed as a percentage of the reference compound (α4β2; peptide at 0.2 μM): 71% | Activity of a4b2 with peptide (percentage of the reference compound) (α4β2; peptide at 20 μM): 95% | Activity of Kv1.3 with peptide, expressed as a percentage of the reference compound (Kv1.3; peptide at 0.2 μM): 86% | Activity of Kv1.3 with peptide (percentage of the reference compound) (Kv1.3; peptide at 20 μM): 90% | Activity of Kv1.2 with peptide, expressed as a percentage of the reference compound (Kv1.2; peptide at 0.2 μM): 77% | Activity of Kv1.2 with peptide (percentage of the reference compound) (Kv1.2; peptide at 20 μM): 76% | Activity of Kv1.1 with peptide, expressed as a percentage of the reference compound (Kv1.1; peptide at 0.2 μM): 69% | Activity of Kv1.1 with peptide (percentage of the reference compound) (Kv1.1; peptide at 20 μM): 72% | Activity of Nav1.7 with peptide, expressed as a percentage of the reference compound (Nav1.7; [3]): 91% | Activity of Nav1.7 with peptide, expressed as a percentage of the reference compound (Nav1.7; [4]): 97% | Activity of Nav1.7 with peptide (percentage of the reference compound) (Nav1.7; [3]): 75% | Activity of Nav1.7 with peptide (percentage of the reference compound) (Nav1.7; [4]): 58% | Activity of Kir2.1 with peptide, expressed as a percentage of the reference compound (Kir2.1; peptide at 0.2 μM): 107% | Activity of Kir2.1 with peptide (percentage of the reference compound) (Kir2.1; peptide at 20 μM): 88% | Activity of TRPV1 with peptide, expressed as a percentage of the reference compound (TRPV1; peptide at 0.2 μM): 124% | Activity of TRPV1 with peptide (percentage of the reference compound) (TRPV1; peptide at 20 μM): 99% | Activity of a3b4 with peptide, expressed as a percentage of the reference compound (α3β4; peptide at 0.2 μM): 91% | Activity of a3b4 with peptide (percentage of the reference compound) (α3β4; peptide at 20 μM): 86%

Reference: patent publication US20200262877A1, “ION CHANNEL-BINDING PEPTIDES AND METHODS OF USE THEREOF” (priority 2017, published 2020)
